Experimental data published in patent US20260200999A1, “SYNTHETIC TRANSCRIPTION FACTORS” (ETH ZURICH, priority 2022, published 2026).

Tests used:
[1] = system: Response Element-driven mCerulean reporter (MTERF1 binding sites, SEQ ID NO: 42); assay: mCerulean reporter co-transfection with HumTAP constructs in HEK293 cells (flow cytometry); assay type: cell-based, human; conditions: HEK293; for reporter (mCerulean) expression: TAD fused to MTERF158-399, pEF1a-driven, Example 4, FIG. 9B, C
Text: To construct a promoter with Response Elements/MTERF1 binding sites driving the gene of interest, the inventors placed MTERF1 binding sites (SEQ ID NO: 42) upstream a minimal TATA box (SEQ ID NO: 103). An mCerulean fluorescent reporter representing the gene of interest (Gol) was placed downstream of the TATA box. Each of these is referred to as a reporter construct. Five different reporter constructs were made comprising respectively 3, 5, 7, 9, and 11 MTERF1 binding sites 6 base pairs apart upstream of the TATA box (FIG. 1A; SEQ ID NO: 41, 44, 45, 46 and 47, respectively). They were co-transfected with the MTF construct into Hela cells. […] Using flow cytometry, relative mCerulean levels were measured and calculated by normalization to the transfection control in Hela cells (FIG. 1C). […] Next, reporter plasmids with varying spacer lengths (0, 6 bp and 10 bp; SEQ ID NO: 48, 44 and 49, respectively) (FIG. 1F) between a fixed number of REs (i.e. 5 REs/MTERF1 binding sites) were transfected with the MTF construct. […] This was confirmed using flow cytometry (FIG. 1H). […]
With the goal to engineer stronger and possibly shorter HumTAPs, the inventors fused the MTERF158-399 peptide (SEQ ID NO: 1) to a variety of transactivation domains and transfected HEK293 cells with those constructs and the reporter construct comprising 5×RE/MTERF1 binding sites without a spacer between them (SEQ ID NO: 48).
First, MTERF158-399 (SEQ ID NO: 1) was fused with different subsequences of RelA. RelA361-551 (SEQ ID NO: 27) corresponds to the sequence used in the construction of the bacterial-derived synthetic TF PIT2 [19], while RelA342-551 (SEQ ID NO: 29) contains all annotated transactivation domains according to domain annotation under Uniprot Q04206 (https://www.uniprot.org/uniprotkb/Q04206/entry). […] We also fused MTERF158-399 (SEQ ID NO: 1) to a set of transactivation domains previously found to be strong activators with a small genetic footprint (FIG. 4B).
To further decrease the DNA footprint of a HumTAP, the inventors investigated to what degree the DNA binding domain may be reduced. To this end, the inventors created 3 versions of MTERF1 subsequences fused to RelA430-551 (SEQ ID NO: 3). MTERF173-399 (SEQ ID NO: 7), MTERF1104-399 (SEQ ID NO: 9), and MTERF1135-399 (SEQ ID NO: 11) are subunits of MTERF1 without its mitochondrial transfer peptide (MTERF11-57; SEQ ID NO: 37) that either lack only the first […] N-terminal amino acids (MTERF58-72; SEQ ID NO: 39) or additionally, also lack the first (MTERF173-98; SEQ ID NO: 104) or both the first and second (MTERF1104-134; SEQ ID NO: 106) mterf motifs (FIG. 5A). The removal of N-terminal domains reduces the genetic footprint of a HumTAP (FIG. 5B). These constructs were co-transfected into HEK293 cells with the reporter construct containing 5×RE without a spacer in its promoter (SEQ ID NO: 48).
In addition to RelA430-551 (termed “v1”), the inventors tested three alternative subsequences: v2) RelA342-551 (SEQ ID NO: 29), which contains all transactivation domains as annotated on UniProt Q04206; v3) RelA361-551 (SEQ ID NO: 27), which is identical to the peptide used in the construction of PIT2 [2]; and v4) RelA521-551 (SEQ ID NO: 31), which constitutes only the transactivation domain 1 (TA1). The protein domains WW (SEQ ID NO: 21), KRAB of ZNF473 (SEQ ID NO: 23), Nuc-rec-co-Act (SEQ ID NO: 25), LMSTEN (SEQ ID NO: 19), and FoxoTAD (SEQ ID NO: 17) were recently identified as strong transactivators. To assess their functionality in the HumTAP context, the inventors created fusion proteins between each of them and MTERF158-399 (SEQ ID NO: 1) (FIG. 9A).
Upon co-transfection of HEK293 cells with plasmids encoding pEF1a-driven expression of the fusion HumTAPs, a Response Element-driven mCerulean reporter protein, and a mCherry transfection control, all peptides derived from RelA except TA1 mediated high levels of reporter gene expression. […]

[2] = molecular target: T1, FKBP (SEQ ID NO: 142) and FRBT2098L (SEQ ID NO: 140) heterodimerization (Homo sapiens, UniProt P42345+P62942+Q04206, T2098L); assay: A/C heterodimerizer-inducible HumTAP gene expression system in HEK293 cells; assay type: cell-based; conditions: HEK293; constant A/C heterodimerizer concentration of 100 nM; FIG. 10B
T1 construct: expressed in transfected cells; host or cells: HEK293
Text: One well-characterized small-molecule based dimerization system is based on the rapamycin analog A/C (C16-(S)-7-methylindolerapamycin) that induces heterodimerization between the human proteins FK506-binding protein 12 (FKBP; SEQ ID NO: 142) and the FKBP12-rapamycin binding domain (FRB) mutant FRBT2098L (SEQ ID NO: 140), [31]. To achieve A/C heterodimerizer-inducible gene expression, the inventors fused FKBP (SEQ ID NO: 142) to the N-terminus of MTERF158-399 (SEQ ID NO: 1) and FRB (SEQ ID NO: 140) to the C-terminus of different transactivation domains (FIG. 10A). […] In accordance with the results described above, chimeric transactivation domains mediated higher maximal output expression levels than RelA430-551.
The inventors reasoned that in the present system, dimerization might be hindered by either FRB's or FKBP's fusion partner and investigated whether the addition of linkers between the protein domains might impact the EC50 value (FIG. 10 D). A combination of the cMyc nuclear localization signal (NLS) (SEQ ID NO: 122) linking MTERF158-399 and FKBP, and the rigid linker AP6 (SEQ ID NO: 120) linking FRB and RelA430-551 led to a reduction in EC50 to ~60 nM while also increasing maximal output ~3-fold over the variant without linkers and RelA430-551 as TAD (FIG. 10 D).

T1 sequence (P62942 with tags, fused parts or gaps, stated change not applied, one chain of several): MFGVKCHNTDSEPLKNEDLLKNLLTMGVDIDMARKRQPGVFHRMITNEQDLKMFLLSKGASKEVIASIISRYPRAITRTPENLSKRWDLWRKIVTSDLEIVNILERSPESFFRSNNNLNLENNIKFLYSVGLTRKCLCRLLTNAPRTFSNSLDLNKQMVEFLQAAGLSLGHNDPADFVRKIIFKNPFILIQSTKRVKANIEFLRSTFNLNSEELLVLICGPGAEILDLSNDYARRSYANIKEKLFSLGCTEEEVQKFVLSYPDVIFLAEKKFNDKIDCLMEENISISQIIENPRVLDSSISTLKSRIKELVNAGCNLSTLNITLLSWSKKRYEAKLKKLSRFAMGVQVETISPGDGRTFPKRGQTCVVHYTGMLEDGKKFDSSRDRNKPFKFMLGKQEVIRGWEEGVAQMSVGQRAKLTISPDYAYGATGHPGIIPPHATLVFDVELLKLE

B1: MTERF1104-399 with FoxoTAD: FoxoTAD: MTERF1104-399 (SEQ ID NO: 9) fused to FoxoTAD: FoxoTAD (SEQ ID NO: 33) (protein, listed as Homo sapiens)
chain: EQDLKMFLLSKGASKEVIASIISRYPRAITRTPENLSKRWDLWRKIVTSDLEIVNILERSPESFFRSNNNLNLENNIKFLYSVGLTRKCLCRLLTNAPRTFSNSLDLNKQMVEFLQAAGLSLGHNDPADFVRKIIFKNPFILIQSTKRVKANIEFLRSTFNLNSEELLVLICGPGAEILDLSNDYARRSYANIKEKLFSLGCTEEEVQKFVLSYPDVIFLAEKKFNDKIDCLMEENISISQIIENPRVLDSSISTLKSRIKELVNAGCNLSTLNITLLSWSKKRYEAKLKKLSRFAHEKFPSDLDLDMFNGSLECDMESIIRSELMDADGLDFNFDSHEKFPSDLDLDMFNGSLECDMESIIRSELMDADGLDFNFDS
[1]; chimeric TAD fused to MTERF1104-399, FIG. 9F
  strength / reporter gene expression, fold over MTF: ~ 1.5 fold

B2: SEQ ID NO: 52: MTERF158-399 fused to chimeric TAD consisting of FoxoTAD, LMSTEN, and TA1 (protein)
chain: HEKFPSDLDLDMFNGSLECDMESIIRSELMDADGLDFNFDSEAQNVSSHVPYPVALHVNIVNVPQPAAAAIQRHYNDEDPEKEKRIKELELLLMSTENELKGQQVLPTQNHTCSYPGWHSTPGLPNGLLSGDEDFSSIADMDFSALLSQISS
[1]; fused to MTERF158-399, FIG. 9C
  reporter gene expression relative to RelA430-551: 3.7 times

B3: MTERF1135-399: MTERF1 lacking N-term and first and second Mterf motif, fused to RelA430-551 (protein, listed as Homo sapiens)
chain: TPENLSKRWDLWRKIVTSDLEIVNILERSPESFFRSNNNLNLENNIKFLYSVGLTRKCLCRLLTNAPRTFSNSLDLNKQMVEFLQAAGLSLGHNDPADFVRKIIFKNPFILIQSTKRVKANIEFLRSTFNLNSEELLVLICGPGAEILDLSNDYARRSYANIKEKLFSLGCTEEEVQKFVLSYPDVIFLAEKKFNDKIDCLMEENISISQIIENPRVLDSSISTLKSRIKELVNAGCNLSTLNITLLSWSKKRYEAKLKKLSRFA
[1]; FIG. 9E
  functionality of synTF with truncated DBD: non-functional
[1]; N-terminally truncated MTERF1 fused to RelA430-551, reporter SEQ ID NO: 48 (Example 1, FIG. 5B)
  output expression / transcriptional activation: complete loss of transcriptional activation

B4: SEQ ID NO: 58: MTERF158-399 fused to FoxoTAD with TA1 (protein)
chain: HEKFPSDLDLDMFNGSLECDMESIIRSELMDADGLDFNFDSPGLPNGLLSGDEDFSSIADMDFSALLSQISS
[1]
  reporter (mCerulean) expression: smaller and stronger than the benchmark

B5: FRB::RelA430-551: FRBT2098L fused to RelA430-551 (protein)
chain: MVAILWHEMWHEGLEEASRLYFGERNVKGMFEVLEPLHAMMERGPQTLKETSFNQAYGRDLMEAQEWCRKYMKSGNVKDLLQAWDLYYHVFRRISQAGEGTLSEALLQLQFDDEDLGALLGNSTDPAVFTDLASVDNSEFQQLLNQGIPVAPHTTEPMLMEYPEAITRLVTGAQRPPDPAPAPLGAPGLPNGLLSGDEDFSSIADMDFSALLSQISS
[2]
  molar excess over the MTERF158-399: FKBP plasmid giving the highest mCerulean levels: 4 fold

B6: SEQ ID NO: 54: MTERF158-399 fused to FoxoTAD with LMSTEN (protein)
chain: HEKFPSDLDLDMFNGSLECDMESIIRSELMDADGLDFNFDSEAQNVSSHVPYPVALHVNIVNVPQPAAAAIQRHYNDEDPEKEKRIKELELLLMSTENELKGQQVLPTQNHTCSYPGWHST
[1]
  reporter (mCerulean) expression: smaller and stronger than the benchmark

B7: SEQ ID NO: 196: MTERF158-399 fused to two copies of the LMSTEN domain (protein)
chain: EAQNVSSHVPYPVALHVNIVNVPQPAAAAIQRHYNDEDPEKEKRIKELELLLMSTENELKGQQVLPTQNHTCSYPGWHSTEAQNVSSHVPYPVALHVNIVNVPQPAAAAIQRHYNDEDPEKEKRIKELELLLMSTENELKGQQVLPTQNHTCSYPGWHST
[1]; two copies of TAD fused to MTERF158-399, Example 4, FIG. 9C
  mCerulean/reporter expression, fold more than one copy of the TAD: ~ 2.7 fold

B8: SEQ ID NO: 56: MTERF158-399 fused to LMSTEN with TA1 (protein)
chain: EAQNVSSHVPYPVALHVNIVNVPQPAAAAIQRHYNDEDPEKEKRIKELELLLMSTENELKGQQVLPTQNHTCSYPGWHSTPGLPNGLLSGDEDFSSIADMDFSALLSQISS
[1]
  reporter (mCerulean) expression: smaller and stronger than the benchmark

B9: SEQ ID NO: 194: MTERF158-399 fused to three TA1 domains (protein)
chain: PGLPNGLLSGDEDFSSIADMDFSALLSQISSPGLPNGLLSGDEDFSSIADMDFSALLSQISSPGLPNGLLSGDEDFSSIADMDFSALLSQISS
[1]
  reporter (mCerulean) expression: further increased output expression
